Columns and labels:
[1] = system: HeLa Kyoto; test: solubility in G1/S (NP-40 vs SDS abundance) (log2 ratio); higher = more soluble; conditions: cell cycle stage: G1/S
[2] = system: HeLa Kyoto; test: melting temperature (median over replicates), in situ; higher = more thermally stable
[3] = system: HeLa Kyoto; test: solubility change mitosis vs G1/S (difference of NP-40 vs SDS log2 ratios) (log2 ratio difference); higher = more soluble in mitosis
[4] = system: HeLa Kyoto; test: thermal stability score vs G1/S (z-score of summed log2 fold changes over temperatures); higher = more thermally stable than in G1/S
[5] = cell cycle stage: early G1 (4.5 h after nocodazole release)
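For melting temperature (median over replicates), in situ in this document: HeLa Kyoto cells synchronized by double thymidine or nocodazole block, proteins quantified by TMT10plex mass spectrometry, three independent biological replicates.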
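For solubility change mitosis vs G1/S (difference of NP-40 vs SDS log2 ratios) in this document: synchronized HeLa Kyoto cells (double thymidine block for G1/S, nocodazole release for mitosis), protein amounts in NP-40 versus SDS lysates quantified by mass spectrometry, three biological replicates.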
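For solubility in G1/S (NP-40 vs SDS abundance) in this document: HeLa Kyoto cells arrested at G1/S by double thymidine block, proteins quantified by TMT10plex mass spectrometry in mild NP-40 versus SDS extracts, three biological replicates.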
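For thermal stability score vs G1/S (z-score of summed log2 fold changes over temperatures) in this document: synchronized HeLa Kyoto cells, proteins quantified by TMT10plex mass spectrometry, three biological replicates, mitosis taken 0.5 h after nocodazole release, G1/S directly after double thymidine block.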

Sequence of PSMA6 (chain, as listed by the source): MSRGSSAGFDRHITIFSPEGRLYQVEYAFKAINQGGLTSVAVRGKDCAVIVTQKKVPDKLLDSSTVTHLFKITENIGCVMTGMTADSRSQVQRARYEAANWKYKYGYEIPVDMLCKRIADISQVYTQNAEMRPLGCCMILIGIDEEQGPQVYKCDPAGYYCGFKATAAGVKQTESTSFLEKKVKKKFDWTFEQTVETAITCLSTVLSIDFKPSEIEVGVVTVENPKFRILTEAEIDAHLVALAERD

| Substance | solubility in G1/S (log2) [1] | melting temperature ([2]; cell cycle stage: G1/S) [°C] | melting temperature ([2]; cell cycle stage: mitosis) [°C] | solubility change mitosis (log2) [3] | thermal stability score [4, 5] | thermal stability score ([4]; cell cycle stage: mitosis) |
| --- | --- | --- | --- | --- | --- | --- |
| MADKTPGGSQKASSKTRSSDVHSSGSSDAHMDASGPSDSDMPSRTRPKSPRKHNYRNESARESLCDSPHQNLSRPLLENKLKAFSIGKMSTAKRTLSKKEQEELKKKEDEKAAAEIYEEFLAAFEGSDGNKVKTFVRGGVVNAAKEEHETDEKRGKIYKPSSRFADQKNPPNQSSNERPPSLLVIETKKPPLKKGEKEKKKSNLELFKEELKQIQEERDERHKTKGRLSRFEPPQSDSDGQRRSMDAPSRRNRSSGVLDDYAPGSHDVGDPSTTNLYLGNINPQMNEEMLCQEFGRFGPLASVKIMWPRTDEERARERNCGFVAFMNRRDAERALKNLNGKMIMSFEMKLGWGKAVPIPPHPIYIPPSMMEHTLPPPPSGLPFNAQPRERLKNPNAPMLPPPKNKEDFEKTLSQAIVKVVIPTERNLLALIHRMIEFVVREGPMFEAMIMNREINNPMFRFLFENQTPAHVYYRWKLYSILQGDSPTKWRTEDFRMFKNGSFWRPPPLNPYLHGMSEEQETEAFVEEPSKKGALKEEQRDKLEEILRGLTPRKNDIGDAMVFCLNNAEAAEEIVDCITESLSILKTPLPKKIARLYLVSDVLYNSSAKVANASYYRKFFETKLCQIFSDLNATYRTIQGHLQSENFKQRVMTCFRAWEDWAIYPEPFLIKLQNIFLGLVNIIEEKETEDVPDDLDGAPIEEELDGAPLEDVDGIPIDATPIDDLDGVPIKSLDDDLDGVPLDATEDSKKNEPIFKVAPSKWEAVDESELEAQAVTTSKWELFDQHEESEEEENQNQEEESEDEEDTQSSKSEEHHLYSNPIKEEMTESKFSKYSEMSEEKRAKLREIELKVMKFQDELESGKRPKKPGQSFQEQVEHYRDKLLQREKEKELERERERDKKDKEKLESRSKDKKEKDECTPTRKERKRRHSTSPSPSRSSSGRRVKSPSPKSERSERSERSHKESSRSRSSHKDSPRDVSKKAKRSPSGSRTPKRSRRSRSRSPKKSGKKSRSQSRSPHRSHKKSKKNKH [U2SURP] | -0.673 | 47.9 | 49.5 | 0.526 | 1.49 | 6.77 |
| PSMA6 | -0.0362 | 62.9 | 60.9 | 0.0779 | -1.86 | -3.6 |
| CARKD | 0.243 | 54.8 | 56.1 | -0.211 | -0.234 | -1.33 |
| MSMEDPFFVVKGEVQKAVNTAQGLFQRWTELLQDPSTATREEIDWTTNELRNNLRSIEWDLEDLDETISIVEANPRKFNLDATELSIRKAFITSTRQVVRDMKDQMSTSSVQALAERKNRQALLGDSGSQNWSTGTTDKYGRLDRELQRANSHFIEEQQAQQQLIVEQQDEQLELVSGSIGVLKNMSQRIGGELEEQAVMLEDFSHELESTQSRLDNVMKKLAKVSHMTSDRRQWCAIAILFAVLLVVLILFLVL [STX6] | -0.167 | 53.5 | 52.9 | -0.118 | 1.56 | -0.616 |
